From patent publication US20210246166A1 (Bayer, published 2021)
Numbered stars: 1 amine (or outer) side, 2 acyl side, 3 side chain; on linkers, the order of the positions; unused ones are H or OH. Bridge positions count the residues as written; N and C are the ends. Square brackets hold non-standard residues; d marks the D form. Ends that are not written are not given here. * marks the point of attachment. X11 = (S)‑Piperidine‑3‑carboxylic acid, O=C([C@H]1CCCN([*:1])C1)[*:2]; X14 = (2,4-dioxoimidazolidin-1-yl)acetic acid, O=C1CN(CC(=O)*)C(=O)N1; Nip(3R) = O=C([C@@H]1CCCN([*:1])C1)[*:2]; Oic = O=C(O)[C@@H]1C[C@@H]2CCCC[C@@H]2N1; Pen = CC(C)(S)[C@H](N)C(=O)O; PEG3 = NCCOCCOCCOCCC(=O)O; Orn = NCCC[C@H](N)C(=O)O; Ahx = NCCCCCC(=O)O; Sar = CNCC(=O)O

T1: Recombinant human MASP1 enzyme (fragment corresponding to amino acids 297-699, C-terminal His Tag) (human, UniProt P48740 297-699)
T1 sequence: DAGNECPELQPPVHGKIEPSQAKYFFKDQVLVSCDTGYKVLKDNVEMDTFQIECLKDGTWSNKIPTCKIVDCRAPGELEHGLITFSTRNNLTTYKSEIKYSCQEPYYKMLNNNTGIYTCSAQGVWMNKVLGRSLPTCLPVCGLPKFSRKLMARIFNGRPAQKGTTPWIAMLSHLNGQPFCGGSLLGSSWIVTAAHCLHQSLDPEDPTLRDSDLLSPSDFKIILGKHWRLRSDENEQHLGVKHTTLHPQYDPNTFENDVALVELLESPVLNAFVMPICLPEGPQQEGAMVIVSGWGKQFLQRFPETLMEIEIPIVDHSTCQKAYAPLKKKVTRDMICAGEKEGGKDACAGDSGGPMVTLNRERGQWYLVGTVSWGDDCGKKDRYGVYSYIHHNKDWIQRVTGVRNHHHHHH

B1: ((2,4-dioxoimidazolidin-1-yl)acetic acid)-IC+SRSLP-(Oic)-I-(Pen)+IPD-OH (peptide)
peptide: X14-ICSRSLP[Oic]I[Pen]IPD-OH
modifications: disulfide 2-10
SMILES: CC[C@H](C)[C@H](NC(=O)CN1CC(=O)NC1=O)C(=O)N[C@H]1CSSC(C)(C)[C@@H](C(=O)N[C@H](C(=O)N2CCC[C@H]2C(=O)N[C@@H](CC(=O)O)C(=O)O)[C@@H](C)CC)NC(=O)[C@H]([C@@H](C)CC)NC(=O)[C@@H]2C[C@@H]3CCCC[C@@H]3N2C(=O)[C@@H]2CCCN2C(=O)[C@H](CC(C)C)NC(=O)[C@H](CO)NC(=O)[C@H](CCCNC(=N)N)NC(=O)[C@H](CO)NC1=O
B2: ((N-Me)G)-IC+SRSLP-(Oic)-I-(Pen)+IPDD-OH (peptide)
peptide: [Sar]ICSRSLP[Oic]I[Pen]IPDD-OH
modifications: disulfide 3-11; N-terminus assumed
SMILES: CC[C@H](C)[C@H](NC(=O)CNC)C(=O)N[C@H]1CSSC(C)(C)[C@@H](C(=O)N[C@H](C(=O)N2CCC[C@H]2C(=O)N[C@@H](CC(=O)O)C(=O)N[C@@H](CC(=O)O)C(=O)O)[C@@H](C)CC)NC(=O)[C@H]([C@@H](C)CC)NC(=O)[C@@H]2C[C@@H]3CCCC[C@@H]3N2C(=O)[C@@H]2CCCN2C(=O)[C@H](CC(C)C)NC(=O)[C@H](CO)NC(=O)[C@H](CCCNC(=N)N)NC(=O)[C@H](CO)NC1=O
B3: ((N-Me)G)-IC+SRSLP-(Oic)-I-(Pen)+IPDK-OH (peptide)
peptide: [Sar]ICSRSLP[Oic]I[Pen]IPDK-OH
modifications: disulfide 3-11; N-terminus assumed
SMILES: CC[C@H](C)[C@H](NC(=O)CNC)C(=O)N[C@H]1CSSC(C)(C)[C@@H](C(=O)N[C@H](C(=O)N2CCC[C@H]2C(=O)N[C@@H](CC(=O)O)C(=O)N[C@@H](CCCCN)C(=O)O)[C@@H](C)CC)NC(=O)[C@H]([C@@H](C)CC)NC(=O)[C@@H]2C[C@@H]3CCCC[C@@H]3N2C(=O)[C@@H]2CCCN2C(=O)[C@H](CC(C)C)NC(=O)[C@H](CO)NC(=O)[C@H](CCCNC(=N)N)NC(=O)[C@H](CO)NC1=O
B4: ((S)-Piperidine-3-carboxylic acid)-IC+SRSLP-(Oic)-I-(Pen)+I-OH (peptide)
peptide: [X11]ICSRSLP[Oic]I[Pen]I-OH
modifications: disulfide 3-11; N-terminus assumed
SMILES: CC[C@H](C)[C@H](NC(=O)[C@H]1NC(=O)[C@H]([C@@H](C)CC)NC(=O)[C@@H]2C[C@@H]3CCCC[C@@H]3N2C(=O)[C@@H]2CCCN2C(=O)[C@H](CC(C)C)NC(=O)[C@H](CO)NC(=O)[C@H](CCCNC(=N)N)NC(=O)[C@H](CO)NC(=O)[C@@H](NC(=O)[C@@H](NC(=O)[C@H]2CCCNC2)[C@@H](C)CC)CSSC1(C)C)C(=O)O
B5: ((N-Me)G)-IC+SRSLP-(Oic)-I-(Pen)+IP-(PEG2(13 atoms))-OH (peptide)
peptide: [Sar]ICSRSLP[Oic]I[Pen]IP[PEG3]-OH
modifications: disulfide 3-11; N-terminus assumed
SMILES: CC[C@H](C)[C@H](NC(=O)CNC)C(=O)N[C@H]1CSSC(C)(C)[C@@H](C(=O)N[C@H](C(=O)N2CCC[C@H]2C(=O)NCCOCCOCCOCCC(=O)O)[C@@H](C)CC)NC(=O)[C@H]([C@@H](C)CC)NC(=O)[C@@H]2C[C@@H]3CCCC[C@@H]3N2C(=O)[C@@H]2CCCN2C(=O)[C@H](CC(C)C)NC(=O)[C@H](CO)NC(=O)[C@H](CCCNC(=N)N)NC(=O)[C@H](CO)NC1=O
B6: (Orn)-IC+SRSLP-(Oic)-I-(Pen)+IPD-OH (peptide)
peptide: [Orn]ICSRSLP[Oic]I[Pen]IPD-OH
modifications: disulfide 3-11; N-terminus assumed
SMILES: CC[C@H](C)[C@H](NC(=O)[C@@H](N)CCCN)C(=O)N[C@H]1CSSC(C)(C)[C@@H](C(=O)N[C@H](C(=O)N2CCC[C@H]2C(=O)N[C@@H](CC(=O)O)C(=O)O)[C@@H](C)CC)NC(=O)[C@H]([C@@H](C)CC)NC(=O)[C@@H]2C[C@@H]3CCCC[C@@H]3N2C(=O)[C@@H]2CCCN2C(=O)[C@H](CC(C)C)NC(=O)[C@H](CO)NC(=O)[C@H](CCCNC(=N)N)NC(=O)[C@H](CO)NC1=O
B7: ((N-Me)G)-IC+SRSLP-(Oic)-I-(Pen)+IPGD-OH (peptide)
peptide: [Sar]ICSRSLP[Oic]I[Pen]IPGD-OH
modifications: disulfide 3-11; N-terminus assumed
SMILES: CC[C@H](C)[C@H](NC(=O)CNC)C(=O)N[C@H]1CSSC(C)(C)[C@@H](C(=O)N[C@H](C(=O)N2CCC[C@H]2C(=O)NCC(=O)N[C@@H](CC(=O)O)C(=O)O)[C@@H](C)CC)NC(=O)[C@H]([C@@H](C)CC)NC(=O)[C@@H]2C[C@@H]3CCCC[C@@H]3N2C(=O)[C@@H]2CCCN2C(=O)[C@H](CC(C)C)NC(=O)[C@H](CO)NC(=O)[C@H](CCCNC(=N)N)NC(=O)[C@H](CO)NC1=O
B8: ((N-Me)G)-IC+SRSLP-(Oic)-I-(Pen)+IP-(*Dap)-OH (peptide)
peptide: [Sar]ICSRSLP[Oic]I[Pen]IPX-OH
modifications: disulfide 3-11; not fully specified (residue 14); printed as ((N-Me)G)-IC+SRSLP-(Oic)-I-(Pen)+IP-(*Dap)-OH; also: C-terminal Dap joined through its 3-amino group
B9: ((N-Me)G)-IC+SRSLP-(Oic)-I-(Pen)+IPD-(Ahx)-OH (peptide)
peptide: [Sar]ICSRSLP[Oic]I[Pen]IPD[Ahx]-OH
modifications: disulfide 3-11; N-terminus assumed
SMILES: CC[C@H](C)[C@H](NC(=O)CNC)C(=O)N[C@H]1CSSC(C)(C)[C@@H](C(=O)N[C@H](C(=O)N2CCC[C@H]2C(=O)N[C@@H](CC(=O)O)C(=O)NCCCCCC(=O)O)[C@@H](C)CC)NC(=O)[C@H]([C@@H](C)CC)NC(=O)[C@@H]2C[C@@H]3CCCC[C@@H]3N2C(=O)[C@@H]2CCCN2C(=O)[C@H](CC(C)C)NC(=O)[C@H](CO)NC(=O)[C@H](CCCNC(=N)N)NC(=O)[C@H](CO)NC1=O
B10: ((R)-Piperidine-3-carboxylic acid)-IC+SRSLP-(Oic)-I-(Pen)+I-OH (peptide)
peptide: [Nip(3R)]ICSRSLP[Oic]I[Pen]I-OH
modifications: disulfide 3-11; N-terminus assumed
SMILES: CC[C@H](C)[C@H](NC(=O)[C@H]1NC(=O)[C@H]([C@@H](C)CC)NC(=O)[C@@H]2C[C@@H]3CCCC[C@@H]3N2C(=O)[C@@H]2CCCN2C(=O)[C@H](CC(C)C)NC(=O)[C@H](CO)NC(=O)[C@H](CCCNC(=N)N)NC(=O)[C@H](CO)NC(=O)[C@@H](NC(=O)[C@@H](NC(=O)[C@@H]2CCCNC2)[C@@H](C)CC)CSSC1(C)C)C(=O)O

What follows are binders tested against T1, Recombinant human MASP1 enzyme … (assay: cell-based or functional assay).

First: B1
Second: B2
The “human MASP1 IC50” value of the first is 24-fold higher: 17 nM for the first, 0.72 nM for the second.

First: B3
Second: B4
The “human MASP1 IC50” value of the first is 2.2-fold lower: 3.8 nM for the first, 8.2 nM for the second.

Compared with B5, B6 is 2.4-fold lower in “human MASP1 IC50” value: 4.5 nM for the first, 1.9 nM for the second.

Going from B7 to B8, the “human MASP1 IC50” value rises from 1 nM to 6.6 nM (6.6-fold).

Going from AICSRSLP[Oic]I[Pen]IP[βDap]-OH (disulfide 3-11; also: C-terminal Dap bonded through its side-chain amino group) [AIC+SRSLP-(Oic)-I-(Pen)+IP-(*Dap)-OH] to B9, the “human MASP1 IC50” value falls from 5.1 nM to 0.41 nM (12-fold).

Compared with [Sar]ICSRSLP[Oic]I[Pen]IP[PEG4‑CH2CO2H (15 atoms)]-OH (disulfide 3-11) [((N-Me)G)-IC+SRSLP-(Oic)-I-(Pen)+IP-(PEG4-CH2CO2H (15 atoms))-OH], B10 is 2.4-fold higher in “human MASP1 IC50” value: 1.8 nM for the first, 4.3 nM for the second.

These binders were tested against Recombinant human MASP2 enzyme (fragment corresponding to amino acids 297-686, C-terminal His Tag) (human, UniProt O00187 297-686) (assay: cell-based or functional assay).
Sequence of Recombinant human MASP2 enzyme (fragment corresponding to amino acids 297-686, C-terminal His Tag) (O00187 other isoform, or with tags, fused parts or gaps limits assumed): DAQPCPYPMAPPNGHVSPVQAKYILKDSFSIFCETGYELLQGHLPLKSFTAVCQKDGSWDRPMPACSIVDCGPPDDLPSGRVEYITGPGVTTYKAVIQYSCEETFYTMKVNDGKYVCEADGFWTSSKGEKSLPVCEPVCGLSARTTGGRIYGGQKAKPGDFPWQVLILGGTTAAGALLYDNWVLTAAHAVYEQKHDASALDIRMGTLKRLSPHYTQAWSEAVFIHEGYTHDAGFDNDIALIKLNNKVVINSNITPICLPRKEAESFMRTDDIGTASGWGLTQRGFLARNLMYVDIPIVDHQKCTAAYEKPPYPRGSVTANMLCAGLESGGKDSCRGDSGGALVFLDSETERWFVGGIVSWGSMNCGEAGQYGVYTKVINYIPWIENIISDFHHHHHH

B1 and B2 are within 1.5-fold of each other in “human MASP2 IC50” value: 45 nM for the first, 40 nM for the second.

First: B3
Second: B4
The “human MASP2 IC50” value of the first is 1.9-fold higher: 260 nM for the first, 140 nM for the second.

B5 and B6 are within 1.5-fold of each other in “human MASP2 IC50” value: 97 nM for the first, 110 nM for the second.

B7 and B8 are within 1.5-fold of each other in “human MASP2 IC50” value: 45 nM for the first, 55 nM for the second.

Compared with AICSRSLP[Oic]I[Pen]IP[βDap]-OH (disulfide 3-11; also: C-terminal Dap bonded through its side-chain amino group) [AIC+SRSLP-(Oic)-I-(Pen)+IP-(*Dap)-OH], B9 is 1.8-fold lower in “human MASP2 IC50” value: 210 nM for the first, 120 nM for the second.

Compared with [Sar]ICSRSLP[Oic]I[Pen]IP[PEG4‑CH2CO2H (15 atoms)]-OH (disulfide 3-11) [((N-Me)G)-IC+SRSLP-(Oic)-I-(Pen)+IP-(PEG4-CH2CO2H (15 atoms))-OH], B10 is 3.4-fold higher in “human MASP2 IC50” value: 58 nM for the first, 200 nM for the second.
